Measurements as given in patent US20250277051A1 (HANGZHOU UNOGEN BIOTECH, published 2025).
Substitutions are numbered along the chain they refer to.

Tests used:
[1] = target: T1, recombinant human CD38 protein (human, UniProt P28907 43-300, biotin labeled); assay: ELISA, biotinylated recombinant human CD38 captured on a streptavidin plate, OD 450 nm
T1 construct: Biotin labeled and captured on streptavidin coated plates; also called human CD38 target

[2] = target: T2, recombinant mouse CD38 protein (mouse, UniProt P56528 45-304, limits assumed, biotin labeled); assay: ELISA, biotinylated recombinant mouse CD38 captured on a streptavidin plate, OD 450 nm
T2 construct: also called mouse recombinant CD38 protein; mouse CD38 antigen
T2 sequence (looked up): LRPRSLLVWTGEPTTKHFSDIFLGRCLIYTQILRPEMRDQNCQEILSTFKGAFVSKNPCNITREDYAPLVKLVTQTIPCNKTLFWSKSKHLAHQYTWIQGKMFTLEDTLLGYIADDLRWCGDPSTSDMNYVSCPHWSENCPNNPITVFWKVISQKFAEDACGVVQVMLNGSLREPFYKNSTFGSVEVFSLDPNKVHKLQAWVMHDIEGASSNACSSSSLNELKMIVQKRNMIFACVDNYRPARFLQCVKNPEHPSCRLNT

[3] = target: T3, recombinant cynomolgus monkey CD38 protein (cynomolgus monkey, UniProt Q5VAN0 44-301, biotin labeled); assay: ELISA, biotinylated recombinant cynomolgus monkey CD38 captured on a streptavidin plate, OD 450 nm
T3 construct: Biotin labeled and captured on a streptavidin coated plate; also called cynomolgus monkey CD38 antigen; cynomolgus recombinant CD38 protein

[4] = target: T1, recombinant human CD38 protein; assay: ELISA on recombinant human CD38, OD 450 nm
[5] = target: T4, recombinant cynomolgus monkey CD3 delta and epsilon domain protein (cynomolgus monkey, UniProt Q95LI5 22-117; Q95LI8 22-105, biotin labeled); assay: ELISA, recombinant antigen on plate
T4 construct: Biotin labeled and captured on a streptavidin coated ELISA plate; also called cynomolgus monkey recombinant CD3 protein, consisting of CD3 epsilon and CD3 delta chains

[6] = target: T5, recombinant human CD3 delta and epsilon domain protein (human, UniProt P07766 23-126; P04234 22-105, biotin labeled); assay: ELISA, biotinylated recombinant human CD3 epsilon/delta captured on a streptavidin plate, OD 450 nm
T5 construct: Biotin labeled and captured on a streptavidin coated ELISA plate; also called human recombinant CD3 protein, consisting of CD3 epsilon and CD3 delta chains

[7] = target: T4, recombinant cynomolgus monkey CD3 delta …; assay: ELISA, biotinylated recombinant cynomolgus monkey CD3 epsilon/delta captured on a streptavidin plate, OD 450 nm
[8] = target: T1, recombinant human CD38 protein; assay: ELISA on recombinant human CD38, OD 450 nm; remark: listed apart in the source

T4 sequence (Q95LI5 22-117, stated change not applied, chain 1 of 2): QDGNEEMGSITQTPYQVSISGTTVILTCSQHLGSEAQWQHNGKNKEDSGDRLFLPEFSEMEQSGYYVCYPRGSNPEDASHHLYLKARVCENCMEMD
T4 sequence (Q95LI8 22-105, stated change not applied, chain 2 of 2): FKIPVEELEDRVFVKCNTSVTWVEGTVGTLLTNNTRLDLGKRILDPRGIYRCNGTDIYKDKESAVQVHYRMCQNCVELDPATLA
T5 sequence (P07766 23-126, stated change not applied, chain 1 of 2): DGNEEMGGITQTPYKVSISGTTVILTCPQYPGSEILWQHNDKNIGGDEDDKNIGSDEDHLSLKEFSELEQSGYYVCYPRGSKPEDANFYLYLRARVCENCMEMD
T5 sequence (P04234 22-105, stated change not applied, chain 2 of 2): as the sequence (Q95LI8 22-105, stated change not applied, chain 2 of 2) above, with V5I, K15N, V20I, T32S, N33D, N34I, A64T, N74S, L83V counted along it

B1: SEQ ID NO 4 (VHH)
VHH: EVQLQESGGGLVQAGHSLRLSCVGSGSRFDNYAMGWFRQAPGKEREFVAAISWSSGTTRYLDTVKGRFTISRDNAKSTVYLQMNSLKPEDTAVYYCAARYQPRYYDSGDMDGYEYDNWGQGTQVTVSS
notes: Variable-heavy-only (VHO) single domain; also called CD38 5FIO VHO1
Question: Does B1 bind [1]?
Answer: Result: binds

Question: Does B1 bind [2]?
Answer: Result: binds

Question: And the “EC50 (read off the curve)” value [3]?
Answer: Its value is ~0.4 nM.

B2: SEQ ID NO 20 (VHH)
VHH: B1 VHH with E1D, S27D, P102N, Y104F
notes: VHO single domain; also called CD38 5FIO VHO5
Question: Does B2 bind [4]?
Answer: Result: binds

B3: SEQ ID NO 5 (VHH)
VHH: EVQLQESGGGLVQAGGSLRLSCTGSGRTFRNYPMAWFRQAPGKEREFVAGITWVGASTLYADFAKGRFTISRDNAKNTVYLQMNSLKPEDTAVYSCAAGRGIVAGRIPAEYADWGQGTQVTVSS
notes: also called CD38 5F1K VHO1
Question: What does the source list for B3?
Answer: binding result [1]: binds; binding result [2]: no binding (tested: about 60 nM); binding result [3]: binds

B4: SEQ ID NO 24 (VHH)
VHH: B3 VHH with E1D, R30Y, N31L, L59N, V103T
notes: VHO single domain; also called CD38 5FIOK VHO5
Question: Does B4 bind [4]?
Answer: Result: binds

B5: SEQ ID NO 6 (VHH)
VHH: EVQLQESGGGSVQAGGSLTLSCTASGLLFRLASMGWYRQAPGKERELIATITVGGKTNYKDSVQGRFIITRDNTGDNTKSTVTLQMNRLKPEDTAVYYCNTASPAVGADTWGQGTRVTVSS
notes: also called CD38 5F21 VHO1
Question: Does B5 bind [1]?
Answer: Result: binds

Question: Does B5 bind [2]?
Answer: Result: no binding (tested: about 60 nM)

Question: Does B5 bind [3]?
Answer: Result: no binding (tested: about 30 nM)

B6: SEQ ID NO: 4×SP34 v8 (bispecific antibody, V domains shown)
VHH: B1 VHH
VH: EVQLVESGGGLVQPGGSLKLSCAASGFTFNTYAMNWVRQAPGKGLEWVARIRSKYNNYATYYADSVKDRFTISRDDSKNTAYLQMNNLKTEDTAVYYCVRHGNFGNSYVAWFAYWGQGTLVTVSS
VL: QTVVTQEPSLTVSPGGTVTLTCRSSTGAVTTSNYANWVQQKPGQAPRGLIGGTNKRAPGTPARFSGSLLGGKAALTLSGVQPEDEAEYYCALWYSNLWVFGGGTKLTVL
notes: CD38 VHO arm paired with a CD3 arm
Question: Which “EC50 (read off the curve)” value [1] does the source give for B6 here?
Answer: Its value is ~0.1 nM.

B7: SP34 (antibody, V domains shown)
VH: B6 VH with A110S
VL: B6 VL
notes: also called positive control anti-CD3 antibody
Question: Does B7 bind [5]?
Answer: Result: binds

B8: SP34 v8 (antibody, V domains shown)
VH: B6 VH
VL: B6 VL
notes: also called SP34 v8 LC; SP34 v8 HC
Question: Does B8 bind [6]?
Answer: Result: binds

Question: What about the “EC50 (read off the curve)” value [7] of the same binder?
Answer: The value was ~0.08 nM.

B9: SEQ ID NO 17 (VHH)
VHH: QVQLVQSGAEVKKPGASVKVSCKASGSRFDNYAMGWFRQAPGQEREFMGAISWSSGTTRYAQKVQGRVTMTRDTSTSTVYMELSSLRSEDTAVYYCAARYQPRYYDSGDMDGYEYDNWGQGTLVTVSS
notes: VHO single domain; also called CD38 5FIO VHO2
Question: Does B9 bind [4]?
Answer: Result: binds

B10: SEQ ID NO 18 (VHH)
VHH: QVTLKESGPVLVKPTETLTLTCTGSGSRFDNYAMGWFRQPPGKEREFLAAISWSSGTTRYSTSLKSRLTISRDTSKSQVVLTMTNMDPVDTATYYCAARYQPRYYDSGDMDGYEYDNWGQGTLVTVSS
notes: VHO single domain; also called CD38 5FIO VHO3
Question: Does B10 bind [4]?
Answer: Result: binds

B11: SEQ ID NO 21 (VHH)
VHH: QMQLVQSGAEVKKTGSSVKVSCKGSGRTFRNYPMAWFRQAPGQEREFMGGITWVGASTLYAQKAQDRVTITRDRSMSTAYMELSSLRSEDTAMYSCAAGRGIVAGRIPAEYADWGQGTLVTVSS
notes: VHO single domain; also called CD38 5FIOK VHO2
Question: Does B11 bind [4]?
Answer: Result: binds

B12: SEQ ID NO 29 (VHH)
VHH: DVQLQESGGGSVQAGGSLTLSCTASGWLFRLASMGWYRQAPGKEREMIAVITTGGRTNYKDSVQGRFIITRDNTKSTVTLQMNRLKPEDTAVYYCNTSMPVVGADEWGQGTRVTVSS
notes: VHO single domain; also called CD38 5F21 VHO5
Question: Does B12 bind [8]?
Answer: Result: binds

B13: SEQ ID NOs: 2 and 3 (mAb) (antibody, V domains shown)
VH: QVQLVQSGAEVAKPGTSVKLSCKASGYTFTDYWMQWVKQRPGQGLEWIGTIYPGDGDTGYAQKFQGKATLTADKSSKTVYMHLSSLASEDSAVYYCARGDYYGSNSLDYWGQGTSVTVSS
VL: DIVMTQSHLSMSTSLGDPVSITCKASQDVSTVVAWYQQKPGQSPRRLIYSASYRYIGVPDRFTGSGAGTDFTFTISSVQAEDLAVYYCQQHYSPPYTFGGGTKLEIK
notes: also called CD38 LC1; CD38 HC1
Question: Does B13 bind [2]?
Answer: Result: no binding (tested: about 60 nM)
